We go through 2 substances from publication doi:10.1101/492876.

The target of assay [1] is preformed oligomeric EF-Tu (^OligoEF-Tu) (E. coli) (UniProt P0CE47). Put plainly: ITC. (In ITC the heat of successive injections is recorded.)
For assay [2], the target named is elongation factor thermo-unstable (EF-Tu), hexahistidine-tagged (E. coli) (UniProt P0CE47). Put plainly: SEC.

For “reduced form of Hsp33 (^RHsp33) (from UniProt P0A6Y5 1-292) (natural protein)”, in assay [1], the Kd – broadly, the constant that tells how readily two partners part at equilibrium – is 580 nM; the dH was -78.6 kJ/mol; the stoichiometry N (as a rule, the number of molecules, sites or subunits per partner or assembly) came out at 2.37. In assay [2], this substance gave a stoichiometry N of 1.
As to “elongation factor thermo-unstable (EF-Tu), hexahistidine-tagged (from UniProt P0CE47 1-394) (natural protein)”, in assay [2], the stoichiometry N amounted to 2.
